Broadly, the EC50 is the concentration giving half of the maximal effect.

22 molecules from patent US20210309747A1 (I MAB BIOPHARMA US, published 2021) can be followed below.

Residue numbers refer to the chain shown, from its start.

First the molecules themselves.
B1: B06 (antibody, V domains shown)
VH: not shown
VL: DIQMTQSPSSLSASVGDRVTITCRASQGISSYLAWYQQKPGKAPKLLIYAASTLQSGVPDRFSGSGSGTDFTLTISSLQAEDVAVYYCQQYLSVPYTFGQGTKVEIK
notes: Fab phage clone converted into full-length IgG; also called 67A3-40
B2: B07 (antibody, V domains shown)
VH: EVQLLESGGGLVQPGGSLRLSCAASGFTFSSYWMSWVRQAPGKGLEWVANIKQDGSEKYYVDSVKGRFTISRDNAKNSLYLQMNSLRAEDTAVYYCARVCGYDDAFDIWGQGTMVTVSA
VL: NIQMTHSPSTLSASVGDRVTISCRASQSISTWLAWYQQKPGKAPKLLIYKASSLESGVPSRFSGSGSGTDFTLTISSLQPEDFATYYCQQSYSIPLTFGGGTKVEIK
notes: Fab phage clone converted into full-length IgG; also called 67C1-5
B3: B16 (antibody, V domains shown)
VH: B2 VH with E1Q, E6D, C100A, G101L, Y102W
VL: B2 VL with N1D, H6Q, T10S, S22T, T31S, D70E, E81D, Q90H, Y92N, I94L
notes: Fab phage clone converted into full-length IgG; also called 67C3-10
B4: B12 (antibody, V domains shown)
VH: B2 VH with E1Q, C100A, G101L, Y102W
VL: B2 VL with M4L, H6Q, T20I, S22T, Q27R, S28G, T31S, K45N, Y49S, Y92S
notes: Fab phage clone converted into full-length IgG; also called 67C1-9
B5: B10 (antibody, V domains shown)
VH: QVQLVQSGGGLVQPGGSLRLSCAASGFTFSSYWMSWVRQAPGKGLEWVANIKQDGSEKYYVDSVKGRFTISRDNAKNSLFLQMNSLGAEDTAMYYCARATVKYGGDDAFDIWGQGTMVTVSA
VL: B2 VL with M4L, H6Q, S22T, T31D, K45N, Y92F, I94T, L96F, G100P, E105D
notes: Fab phage clone converted into full-length IgG; also called 67C3-14
B6: B04 (antibody, V domains shown)
VH: B2 VH with E1Q, E6D, V99T, C100M, G101L, Y102W
VL: B2 VL with N1D, M4L, H6Q, S22T, Q27E, T31S, A43V, I94T, L96P, G100Q
notes: Fab phage clone converted into full-length IgG; also called 67A3-15
B7: B06-01 (antibody, V domains shown)
VH: not shown
VL: B1 VL
B8: B06-03 (antibody, V domains shown)
VH: not shown
VL: B1 VL
B9: B06-02 (antibody, V domains shown)
VH: not shown
VL: B1 VL
B10: B12-02 (antibody, V domains shown)
VH: B2 VH with E1Q, D54E, C100A, G101L, Y102W, A119S
VL: B2 VL with N1D, H6Q, T20I, S22T, Q27R, S28G, T31S, K45N, Y49S, Y92S
B11: B16-01 (antibody, V domains shown)
VH: B2 VH with E1Q, E6D, C100A, G101L, Y102W, A119S
VL: B2 VL with N1D, H6Q, T10S, S22T, T31S, D70E, E81D, Q90H, Y92N, I94L
B12: B12-03 (antibody, V domains shown)
VH: B2 VH with E1Q, D54E, S63A, C100A, G101L, Y102W, A119S
VL: B2 VL with N1D, H6Q, T20I, S22T, Q27R, S28G, T31S, K45N, Y49S, Y92S
B13: B01 (antibody, V domains shown)
VH: EVQLLESGGGLVQPGGSLRLSCAASGFTLSSHWLAWVRQAPGKGLEWVASIHQDASLEFYVDSVEGRFTISRDNSKRSLFLQMNNLRVEDTAVYYCARGDNQFDNWGQGTLVTVSA
VL: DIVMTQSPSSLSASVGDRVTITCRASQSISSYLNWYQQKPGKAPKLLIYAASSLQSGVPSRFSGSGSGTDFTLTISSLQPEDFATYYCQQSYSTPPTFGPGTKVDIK
notes: Fab phage clone converted into full-length IgG; also called 67A3-5
B14: B13 (antibody, V domains shown)
VH: B5 VH with Q1E, V5L, Q6E, F80Y, G87R, M93V, Y95F, A99S, G105A, T116A
VL: B2 VL with H6Q, S22T, T31S, E55Q, I94T, L96F, G100P, E105D
notes: Fab phage clone converted into full-length IgG; also called 67C1-10
B15: B09 (antibody, V domains shown)
VH: B2 VH with V99E, C100D, G101F, Y102W, D103S, D104G, A105Y, F106Q, I108V
VL: not shown
notes: Fab phage clone converted into full-length IgG; also called 67C2-9
B16: B05 (antibody, V domains shown)
VH: EVQLVETGRGLVQPGRSLRLSCAASGFTFSSYWMSWVRQAPGKGLEWVANIKQDGSEKYYVDSVKGRFTISRDNAKNSLYLQMNSLRAEDTAVYYCARGGYYGDDDAFDIWGQGTMVTVSA
VL: B2 VL with H6Q, S22T, T31S, D70E, S91T, I94L, G100Q, K103R, E105G
notes: Fab phage clone converted into full-length IgG; also called 67A3-21
B17: B14 (antibody, V domains shown)
VH: B2 VH with L11E, G16R, T28S, Q53E, C100V, G101R, Y102F, D103N
VL: NIQLTQSPSSVSASVGDRVTITCRASQGISSWLAWYQQKPGKAPKLLIYAASSLQSGVPSRFSGSGSGTDFTLTISSLQPEDFATYYCQQANSFPFTFGPGTKVDIK
notes: Fab phage clone converted into full-length IgG; also called 67C2-19
B18: B03 (antibody, V domains shown)
VH: B2 VH with T28S, Q53E, C100V, G101R, Y102F, D103N
VL: DIQLTQSPSTLSASVGDRVTITCRASQSIDTWLAWYQQKPGKAPKLLIHNASTLKSGVSSRFSGSGSGTDFTLTISSLQPEDFATYYCQQSYSTPLTFGGGTKVEIK
notes: Fab phage clone converted into full-length IgG; also called 67A3-14
B19: B17 (antibody, V domains shown)
VH: EVQLLESGGGLVQPGGSLRLSCAASGFTFSSNAMSWVRQAPGKGLEWVSAVGGGGVNTYYADSVKGRFTISRDNSKNTLYLQMNSLRAEDTAVYYCAKGEKGYSNSCIDYWGQGTLVTVSA
VL: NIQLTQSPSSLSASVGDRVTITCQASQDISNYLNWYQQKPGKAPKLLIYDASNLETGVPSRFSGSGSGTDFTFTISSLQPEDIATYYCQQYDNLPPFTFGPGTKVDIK
notes: Fab phage clone converted into full-length IgG; also called 67C2-23
B20: B11 (antibody, V domains shown)
VH: EVQLLESGAEVKKPGSSVKVSCKASGGTFSSYAISWVRQAPGQGLEWMGGIIPIFGTANYAQKFQGRVTITADESTSTAYMELSSLRSEDTAVYYCARRTDSYGYSDAFDIWGQGTMVTVSA
VL: not shown
notes: Fab phage clone converted into full-length IgG; also called 67C3-17
B21: B08 (antibody, V domains shown)
VH: EVQLLESGGGLVQPGGSLRLSCVGSGFTFSDHYMDWVRQAPGKGLEWVSSISSSSSYIYYADSVKGRFTISRDNAKNSLYLQMNSLRAEDTAVYYCARGRVGATNRFGMDVWGQGTMVTVSA
VL: DIQMIQSPSSVSASVGDRVTITCRASESISRWLAWYQQKPGKAPKLLIYAASNLESGVPSRFSGSGSGTEFTLTISSLQPEDFATYYCQQAESFPSFGQGTRLEIK
notes: Fab phage clone converted into full-length IgG; also called 67C2-1
B22: B02 (antibody, V domains shown)
VH: QVQLLESGGGLVKPGGSLRLSCAASGFTFSTYIINWVRQAPGKGLEWVSSVAASGDYAYYANSVKGRFTISRDNSKNTLYLQMNSLRAEDTAVYYCARDRSSGYYLSPNDAFDIWGQGTMVTVSA
VL: NIQLTQSPSSLSASLGDRVTITCRASQTISRYLNWYQQKPGKAPELLIYATSSLQSGVPSRFSGSGSGTDFTLTISSLQPEDFATYYCQQSYSTPTTFGGGTKVEIK
notes: Fab phage clone converted into full-length IgG; also called 67A2-20

T1 sequence (Q9NZQ7 19-290): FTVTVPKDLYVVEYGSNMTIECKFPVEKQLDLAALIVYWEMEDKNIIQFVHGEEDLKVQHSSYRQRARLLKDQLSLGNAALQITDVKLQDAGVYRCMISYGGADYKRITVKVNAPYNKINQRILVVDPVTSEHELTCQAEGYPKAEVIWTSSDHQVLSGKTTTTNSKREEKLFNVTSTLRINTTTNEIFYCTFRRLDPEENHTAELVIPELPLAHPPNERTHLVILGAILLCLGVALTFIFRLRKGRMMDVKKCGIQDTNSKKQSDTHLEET

The first assay concerns the target T1, human PD-L1 on Raji cells (human, UniProt Q9NZQ7 19-290). Description: cell-based or functional assay.
With B1, the “EC50 (NF-AT-luciferase RLU)” value was determined as 516 pM.
Take B2: the “EC50 (NF-AT-luciferase RLU)” value came out at 1020 pM.
Same read-out and setting: under B3 stands 1050 pM; under B4, 439 pM; under B5, 2220 pM.
Still for that read-out and setting: then B6, with 2340 pM.

Another assay concerns the target T1, human PD-L1 on Raji cells. Description: cell-based or functional assay. The source holds these as a separate data set.
As to B7, the “EC50 (NF-AT-luciferase RLU)” value turned out to be 383 pM.
With B8, the “EC50 (NF-AT-luciferase RLU)” value turned out to be 907 pM.
Regarding B9, the “EC50 (NF-AT-luciferase RLU)” value turned out to be 970 pM.
As for B10, the “EC50 (NF-AT-luciferase RLU)” value turned out to be 497 pM.
The same measure, in the same setting: under B11 stands 611 pM; under B4, 545 pM.
The same measure, in the same setting: then B12, with 517 pM.

A further assay deals with T2, recombinant human PD-L1 (Sino Biological, Cat#: 10084-H08H) (human, UniProt Q9NZQ7 19-238).
T2 construct: Bought protein; also called human PD-L1 protein
T2 sequence (Q9NZQ7 19-238 limits assumed): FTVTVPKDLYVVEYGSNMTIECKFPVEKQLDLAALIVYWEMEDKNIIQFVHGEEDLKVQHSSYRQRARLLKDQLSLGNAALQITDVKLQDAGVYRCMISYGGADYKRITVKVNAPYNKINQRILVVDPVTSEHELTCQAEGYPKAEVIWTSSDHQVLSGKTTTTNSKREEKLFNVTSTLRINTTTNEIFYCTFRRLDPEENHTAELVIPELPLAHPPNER
Kind of assay: ELISA, plate coated with human PD-L1 at 1 ug/ml, detection with goat anti-human IgG-HRP, OD450. On the procedure: To evaluate antigen binding activity, the antibodies were subjected to ELISA test. Briefly, microtiter plates were coated with human PD-L1 protein at 1 μg/ml in PBS, 100 μl/well at 4° C. overnight, then blocked with 100 μl/well of 1% BSA. 4-fold dilutions of humanized antibodies starting from 10 μg/ml were added to each well and incubated for 1-2 hours at RT. The plates were washed with PBS/Tween and then incubate with goat-anti-human IgG antibody conjugated with Horse Radish Peroxidase (HRP) for 1 hour at RT. After washing, the plates were developed with TMB substrate and analyzed by spectrophotometer at OD 450 nm.
For orientation: In an ELISA, binding on a coated surface is turned into a signal by an enzyme label.
Consider B1, for which the 50% effective concentration (EC50) came out at 236 pM.
For B13, the EC50 turned out to be 18000 pM.
In the case of B2, the 50% effective concentration (EC50) stood at 124 pM.
Same read-out and setting: under B14 stands 130 pM.
For the molecule B3, the EC50 is 147 pM.
For the molecule B4, the half-maximal effective concentration (EC50) is 142 pM.
Regarding B15, the EC50 is 14300 pM.
On to B16, for which the concentration giving a half-maximal response (EC50) worked out at 626 pM.
Consider B17, for which the EC50 was found to be 222 pM.
Take B5: the EC50 came out at 310 pM.
B18: the EC50 stood at 1280 pM.
Regarding B6, the EC50 came out at 190 pM.
For B19, the EC50 amounted to 36100 pM.
Regarding B20, the EC50 came to 294 pM.
In the case of B21, the concentration giving a half-maximal response (EC50) was 1630 pM.
The same measure, in the same setting: under B22 stands 15500 pM.
